Test system: peptide library, one residue held at a place counted from the S/T acceptor
Experiment: relative phosphorylation of the sub-library (ratio to the mean residue at this position); higher = residue favoured
Method in brief: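 Relative sub-library phosphorylation, a ratio to the mean residue at that position, was obtained by phosphorimaging and densitometry of spots on streptavidin membranes. Before capture, purified recombinant kinases were incubated for 90 min under kinase-specific conditions with 50 μM biotinylated degenerate peptide sub-libraries and 50 μM ATP spiked with γ-32P-ATP. Each sub-library fixed one residue at one position around a central Ser/Thr.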

MAPK8, construct: aa1-384, human, sequence (P45983 1-384, looked up): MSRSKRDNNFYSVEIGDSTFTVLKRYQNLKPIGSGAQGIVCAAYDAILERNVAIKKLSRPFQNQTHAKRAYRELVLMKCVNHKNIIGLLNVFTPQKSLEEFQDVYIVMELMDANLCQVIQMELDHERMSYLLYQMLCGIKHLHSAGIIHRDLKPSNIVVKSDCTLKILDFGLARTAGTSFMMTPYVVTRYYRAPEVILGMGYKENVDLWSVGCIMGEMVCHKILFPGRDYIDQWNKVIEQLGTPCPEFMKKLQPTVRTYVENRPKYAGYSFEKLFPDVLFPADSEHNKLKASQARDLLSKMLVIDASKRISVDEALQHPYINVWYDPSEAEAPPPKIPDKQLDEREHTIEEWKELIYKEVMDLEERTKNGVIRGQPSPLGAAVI
MAPK13, construct: Full length, human, sequence (O15264 whole entry, looked up): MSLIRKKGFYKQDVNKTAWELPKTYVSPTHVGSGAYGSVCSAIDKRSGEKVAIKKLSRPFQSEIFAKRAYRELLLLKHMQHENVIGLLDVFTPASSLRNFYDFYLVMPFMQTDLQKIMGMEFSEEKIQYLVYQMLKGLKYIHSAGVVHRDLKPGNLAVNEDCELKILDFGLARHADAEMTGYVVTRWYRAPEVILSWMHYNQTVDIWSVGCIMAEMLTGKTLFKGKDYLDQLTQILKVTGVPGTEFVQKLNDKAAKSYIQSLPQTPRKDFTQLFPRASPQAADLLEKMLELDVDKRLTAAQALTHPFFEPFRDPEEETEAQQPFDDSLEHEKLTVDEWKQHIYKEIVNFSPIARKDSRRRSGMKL
MAP3K15, construct: aa631-922, human, sequence (Q6ZN16 631-922, looked up): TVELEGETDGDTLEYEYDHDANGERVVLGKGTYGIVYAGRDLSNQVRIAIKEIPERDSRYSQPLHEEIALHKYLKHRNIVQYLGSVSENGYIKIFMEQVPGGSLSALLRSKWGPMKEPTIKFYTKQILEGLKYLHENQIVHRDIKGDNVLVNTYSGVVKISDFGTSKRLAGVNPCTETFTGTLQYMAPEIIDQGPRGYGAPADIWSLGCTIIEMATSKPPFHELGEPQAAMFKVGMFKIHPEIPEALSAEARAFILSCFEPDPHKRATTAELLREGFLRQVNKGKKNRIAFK

MAP3K15, construct: aa631-922, human (from UniProt Q6ZN16)
relative phosphorylation
Settings	at +1	at +2	at +3	at +4	at -1	at -2	at -3	at -4	at -5
A fixed	0.514	0.74	1.02	0.926	1.01	1.79	1.14	1.02	0.99
D fixed	0.2	0.473	0.377	0.494	0.459	0.498	0.88	0.771	0.79
E fixed	0.257	0.337	0.401	0.534	0.471	0.513	0.73	0.739	0.743
F fixed	1.94	1.79	0.942	0.898	0.745	0.735	0.771	0.855	1.1
G fixed	0.39	0.733	1.07	1.07	2.13	1.26	1.04	1.29	1.24
H fixed	1.08	1.01	1.04	1.04	0.94	0.852	1.07	0.963	1.17
I fixed	1.94	0.567	1.09	1.13	0.415	0.859	0.687	0.668	0.761
K fixed	0.39	1.48	1.14	1.82	1.43	0.864	1.18	1.06	1.05
L fixed	1.41	0.76	1.01	0.885	0.828	0.983	0.799	0.788	0.759
M fixed	1.18	0.952	1.02	0.926	0.963	1.07	0.837	0.896	0.929
N fixed	0.439	0.782	0.971	0.91	1.28	1.26	1.18	1.19	0.988
P fixed	0.352	0.676	1.08	0.971	1.15	1.63	1.6	1.37	1.2
Q fixed	0.604	0.79	0.917	1.1	1.07	1.13	1.26	1.1	1.08
R fixed	0.481	1.7	1.39	1.2	1.73	0.885	1.21	1.15	1.03
V fixed	1.84	0.617	1.12	0.866	0.524	1.13	0.776	0.888	1.24
W fixed	1.83	1.02	1.19	1.15	0.745	0.693	0.917	1.08	1.02
Y fixed	2.16	2.58	1.24	1.07	1.12	0.848	0.925	1.18	0.915
pThr fixed	0.588	0.497	0.73	0.394	0.639	1.06	1.04	0.928	1.09
pTyr fixed	0.529	0.403	0.951	0.582	0.832	0.888	1.02	0.936	1.2

MAPK8, construct: aa1-384, human (from UniProt P45983)
relative phosphorylation
Settings	at +1	at +2	at +3	at +4	at -1	at -2	at -3	at -4	at -5
A fixed	0.237	0.912	1.46	1.17	1.03	2.05	1.17	1.13	1.18
D fixed	0.295	1.06	1.86	1.25	0.995	0.9	1.65	1.61	1.42
E fixed	0.222	0.814	1.86	1.34	0.888	0.556	1.5	1.41	1.06
F fixed	0.309	0.673	0.845	0.778	0.6	0.456	0.663	0.858	0.94
G fixed	0.676	1.22	1.49	1.07	1.31	0.724	1.1	1.03	1.06
H fixed	0.21	0.841	1.02	1.05	0.938	0.446	0.937	1.07	1.07
I fixed	0.247	1.67	0.698	1.11	0.674	1.41	0.797	0.728	0.763
K fixed	0.195	0.501	0.528	0.698	0.95	0.348	0.571	0.75	0.791
L fixed	0.322	1.45	0.881	1.02	1.45	2.55	0.898	0.753	0.685
M fixed	0.25	2	0.922	1	1.43	1.3	0.984	0.962	0.744
N fixed	0.191	0.793	0.84	0.819	0.861	0.469	1.06	0.846	0.826
P fixed	12.8	0.568	0.629	1.57	1.52	2.46	1.33	1.25	1.39
Q fixed	0.193	0.851	0.826	0.913	1.37	0.665	1.01	1.08	1.21
R fixed	0.18	0.575	0.619	0.547	0.886	0.484	0.879	0.778	0.974
V fixed	0.254	1.87	0.809	0.909	0.844	1.48	0.91	0.891	0.849
W fixed	0.196	0.53	0.878	0.937	0.582	0.338	0.727	0.993	0.858
Y fixed	0.213	0.663	0.837	0.81	0.671	0.381	0.808	0.865	1.19
pThr fixed	0.612	2.32	1.64	1.91	0.582	1.28	1.14	1.37	1.34
pTyr fixed	0.866	1.99	8.3	3.22	1.84	1.25	1.58	2.57	1.93

MAPK13, construct: Full length, human (from UniProt O15264)
relative phosphorylation
Settings	at +1	at +2	at +3	at +4	at -1	at -2	at -3	at -4	at -5
A fixed	0.304	0.921	1.42	1.32	1.31	1.25	1.26	1.2	1.3
D fixed	0.162	0.572	1	1.09	1.11	0.486	1.09	1.46	1.26
E fixed	0.123	0.497	1.07	0.846	0.937	0.434	1.21	1.39	1.34
F fixed	0.148	0.663	0.413	1.06	0.768	0.457	1.04	0.933	0.923
G fixed	0.975	1.31	1.13	1.39	0.948	0.896	1.64	1.16	1.33
H fixed	0.143	0.694	0.936	0.884	0.927	0.405	0.773	0.879	1.05
I fixed	0.172	1.27	0.948	1.02	0.529	1.52	0.912	1.02	0.923
K fixed	0.148	0.751	0.57	0.665	0.681	0.25	0.522	0.662	0.855
L fixed	0.208	1.27	1.08	0.988	1.24	2.47	0.884	1.05	0.974
M fixed	0.182	1.04	0.659	1.28	1.77	1.49	1.14	1.22	1.16
N fixed	0.16	0.438	0.64	0.849	0.782	0.512	0.815	0.983	1.1
P fixed	12.9	1.05	2.58	0.942	2.31	3.75	1.08	0.999	0.962
Q fixed	0.613	0.805	0.853	0.754	1.15	0.554	0.999	1.04	0.915
R fixed	0.171	1.4	0.715	0.559	0.698	0.353	0.542	0.653	0.792
V fixed	0.353	2.28	1.18	1.41	0.635	1.53	1.24	0.939	0.652
W fixed	0.126	0.88	1.01	0.868	0.486	0.279	0.837	0.745	0.721
Y fixed	0.14	1.16	0.791	1.07	0.711	0.36	1.02	0.665	0.735
pThr fixed	0.158	1.67	0.939	0.853	0.309	0.376	1.14	1.49	1.7
pTyr fixed	0.126	0.994	0.837	0.652	0.729	0.339	1.07	1.38	1.19

From the supplement of paper PMC9876800
